Test results reported in patent publication CN118638216A (CHENZHOU NO 1 PEOPLES HOSPITAL, dated 2024).

How the values were obtained:
SARS-CoV-2 S1蛋白(Sino …) = target: T1, SARS-CoV-2 S1蛋白(Sino Biological，货号:40591-V08H) (SARS-CoV-2, UniProt P0DTC2 16-685); experiment: ELISA, S1 protein coated at 2 μg/mL, antibody at 1 μg/mL
T1 construct: domain: S1

SARS-CoV S1蛋白(Sino …) = target: SARS-CoV S1蛋白(Sino Biological，货号:40150-V08B1) (SARS-CoV, UniProt P59594 14-667); experiment: ELISA, S1 protein coated at 2 μg/mL, antibody titrated from 10 μg/mL
[1] = target: T2, SARS-CoV-2 Wuhan-Hu-1 S蛋白(Sino Biological，货号:40589-V08B1) (SARS-CoV-2 Wuhan-Hu-1, UniProt P0DTC2 14-1213); experiment: ELISA screen, S protein coated at 2 μg/mL, antibody at 1 μg/mL
T2 construct: extracellular domain

[2] = target: SARS-CoV-2 Gamma突变株S蛋白 (假病毒, Genebank:MZ427312.1) (SARS-CoV-2 Gamma突变株); experiment: cell-based or functional assay
SARS-CoV-2 S2蛋白(Sino …) = target: T3, SARS-CoV-2 S2蛋白(Sino Biological，货号:40590-V08B) (SARS-CoV-2, UniProt P0DTC2 686-1213); experiment: ELISA, S2 protein coated at 2 μg/mL, antibody at 1 μg/mL, anti-human IgG-HRP
T3 construct: domain: S2

B1: 全人源广谱抗sarbecovirus和/或新冠突变株的抗体(VSCM8-83) (antibody, V domains shown)
VH: EVQLVEFGGGLVQPGGSLRLSCAASGFAVSSNYMSWVRQAPGKGLEWVSVIYGDGTTYYGDSVKGRFTISRHNSKNTLYLQMNSLRTEDTAVYYCARIVSEAFDLWGQGTMVTVSS
VL: DIQMTQSPSTLSASVGDRVTITCRASQSIGRWLAWYQQKPGKAPKLLIYMASILESGVPSRFSGSGSATEFTLTISSLQPDDFATYYCQQYNGYSQYTFGQGTKLEIKR
B1: binds (SARS-CoV-2 S1蛋白(Sino …)); binds (SARS-CoV S1蛋白(Sino …)); binds [1]. For the same binder, the “假病毒中和 IC50” value [2] was 0.0207 µg/mL and the binding result (SARS-CoV-2 S2蛋白(Sino …)) was “no binding (tested: 1μg/mL)”.
